Numbering of substitutions follows the chain as printed. “And” between values parts separate entries of the source, which are not always exact repeats. Equal values may be shown once.
T1: human CD200R1 expressed on cells (Jurkat-CD200R1, U937-CD200R1, HH cells) (human, UniProt Q8TD46 25-348)
T1 construct: whole, on cells; also called HH (CRL-2105); cell surface-expressed CD200R1
T1 sequence (looked up): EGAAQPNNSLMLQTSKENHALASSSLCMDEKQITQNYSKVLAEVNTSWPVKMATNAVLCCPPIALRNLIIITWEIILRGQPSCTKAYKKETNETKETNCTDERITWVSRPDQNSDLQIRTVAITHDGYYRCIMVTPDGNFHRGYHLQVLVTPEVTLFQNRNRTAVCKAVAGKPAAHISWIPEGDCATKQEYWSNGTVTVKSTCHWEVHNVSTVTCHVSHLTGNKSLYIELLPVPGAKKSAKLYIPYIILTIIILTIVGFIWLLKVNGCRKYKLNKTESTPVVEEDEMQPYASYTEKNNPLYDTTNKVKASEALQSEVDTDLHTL

T2: mouse CD200R1 protein (R&D systems, 2554-CD) (mouse, UniProt Q9ES57 26-238, limits assumed)
T2 construct: Bought; construct not described
T2 sequence (looked up): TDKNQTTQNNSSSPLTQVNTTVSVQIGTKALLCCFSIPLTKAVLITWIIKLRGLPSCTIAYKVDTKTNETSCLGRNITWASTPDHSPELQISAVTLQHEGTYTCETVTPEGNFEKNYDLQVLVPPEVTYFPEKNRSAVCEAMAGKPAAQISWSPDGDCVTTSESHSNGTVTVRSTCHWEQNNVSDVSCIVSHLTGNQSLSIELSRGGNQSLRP

T3: human CD200RLa (Sino Biological, 11620-H08H) recombinant protein (human, UniProt Q6Q8B3 24-239)
T3 construct: Bought; construct not described
T3 sequence (looked up): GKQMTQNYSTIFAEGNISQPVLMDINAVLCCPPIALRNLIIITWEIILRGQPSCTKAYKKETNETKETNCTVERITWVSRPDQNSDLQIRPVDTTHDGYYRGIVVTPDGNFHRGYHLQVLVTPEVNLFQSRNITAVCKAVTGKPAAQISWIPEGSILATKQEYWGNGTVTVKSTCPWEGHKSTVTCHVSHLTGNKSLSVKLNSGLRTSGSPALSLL

T4: Hybrid CD200R1 MH (mouse;human, UniProt Q9ES57;Q8TD46)
T4 construct: single domain; mouse D1 over human D2; also called MH hybrid domain; P001 MH domain
T4 sequence (hybrid extracellular part, looked up): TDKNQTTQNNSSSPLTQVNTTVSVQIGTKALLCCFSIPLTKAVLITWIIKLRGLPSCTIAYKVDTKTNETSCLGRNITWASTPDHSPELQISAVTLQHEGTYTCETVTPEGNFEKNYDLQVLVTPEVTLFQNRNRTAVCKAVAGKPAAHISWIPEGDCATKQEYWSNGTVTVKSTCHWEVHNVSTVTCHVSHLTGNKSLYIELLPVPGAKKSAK

T5: monkey CD200RLa (Sino Biological, 11576-C02H) recombinant protein (monkey (cyno), UniProt A0A2K5W6R0 30-246)
T5 construct: Bought; construct not described; also called cyno CD200RLa
T5 sequence: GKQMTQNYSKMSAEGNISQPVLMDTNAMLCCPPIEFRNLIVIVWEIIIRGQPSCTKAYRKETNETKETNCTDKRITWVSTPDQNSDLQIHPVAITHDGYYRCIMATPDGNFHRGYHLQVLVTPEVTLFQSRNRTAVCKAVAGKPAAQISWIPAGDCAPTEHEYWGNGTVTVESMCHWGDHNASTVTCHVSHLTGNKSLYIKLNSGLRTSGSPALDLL

T6: human CD200R1 recombinant protein (construct not stated) (human, UniProt Q8TD46 27-266, limits assumed)
T6 sequence (looked up): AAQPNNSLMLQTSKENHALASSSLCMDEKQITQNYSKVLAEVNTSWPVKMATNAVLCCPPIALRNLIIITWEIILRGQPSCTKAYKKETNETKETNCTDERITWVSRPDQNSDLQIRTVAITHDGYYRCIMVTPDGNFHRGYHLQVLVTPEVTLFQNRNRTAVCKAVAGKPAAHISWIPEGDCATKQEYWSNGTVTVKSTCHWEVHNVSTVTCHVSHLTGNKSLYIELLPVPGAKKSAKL

B1: P001008 (IgG) (antibody, V domains shown)
VH: EVQLLESGGGLVQPGGSLRLSCAASGFTFSSYDMSWVRQAPGKGLEWVSWISHGGGSIYYADSVKGRFTISRDNSKNTLYLQMNSLRAEDTAVYYCARDAPALMHSLFDYWGQGTLVTVSS
VL: QSVLTQPPSASGTPGQRVTISCSGSSSNIGSNHVNWYQQLPGTAPKLLIYYDSQRPSGVPDRFSGSKSGTSASLAISGLRSEDEADYYCGSWDASLNGYVFGGGTKLTVL
B2: P001003 (IgG) (antibody, V domains shown)
VH: EVQLLESGGGLVQPGGSLRLSCAASGFTFSDYAMSWVRQAPGKGLEWVSAISHGGSSKYYADSVKGRFTISRDNSKNTLYLQMNSLRAEDTAVYYCARGPEVMLEFDYWGQGTLVTVSS
VL: QSVLTQPPSASGTPGQRVTISCTGSSSNIGNNAVTWYQQLPGTAPKLLIYSDNHRPSGVPDRFSGSKSGTSASLAISGLRSEDEADYYCAAWDSSLSGYVFGGGTKLTVL
B3: P001007 (IgG) (antibody, V domains shown)
VH: EVQLLESGGGLVQPGGSLRLSCAASGFTFSNYDMSWVRQAPGKGLEWVSAISYDNGNTYYADSVKGRFTISRDNSKNTLYLQMNSLRAEDTAVYYCARNRAWFDYWGQGTLVTVSS
VL: B1 VL with S31N, H33N, N35Y, G90A, S91A
B4: P001011 (IgG) (antibody, V domains shown)
VH: EVQLLESGGGLVQPGGSLRLSCAASGFTFSDYYMSWVRQAPGKGLEWVSWISSGGGSTYYADSVKGRFTISRDNSKNTLYLQMNSLGAEDTAVYYCARVRGTCNGTLCYYSNAMDVWGQGTLVTVSS
VL: B1 VL with S23T, H33D, N35S, Y51D, S53N, Q54H, S91T, G98A
B5: P001010 (IgG) (antibody, V domains shown)
VH: EVQLLESGGGLVQPGGSLRLSCAASGFTFSNYAMSWVRQAPGKGLEWVSSISPGGGSIYYADSVKGRFTISRDNSKNTLYLQMNSLRAEDTAVYYCARDPGQMFWPLFDYWGQGTLVTVSS
VL: B1 VL with S23T, H33N, N35S, Y51D, Q54H
B6: P001005 (IgG) (antibody, V domains shown)
VH: EVQLLESGGGLVQPGGSLRLSCAASGFTFSGYDMSWVRQAPGKGLEWVSQIYPGNGSKYYADSVKGRFTISRDNSKNALYLQMNSLRAEDTAVYYCAKDLQTWTSRRFDYWGQGTLVTVSS
VL: B1 VL with S31N, H33D, Y51S, D52N, Q54H, E84G, S91T, A94D
B7: P001004 (IgG) (antibody, V domains shown)
VH: EVQLLESGGGLVQPGGSLRLSCAASGFTFSDYYMSWVRQAPGKGLEWVSGIYPGDGSIYYADSVKGRFTISRDNSKNTLYLQMNSLRAEDAAVYYCAKGLDLYEPMAFDYWGQGTLVTVSS
VL: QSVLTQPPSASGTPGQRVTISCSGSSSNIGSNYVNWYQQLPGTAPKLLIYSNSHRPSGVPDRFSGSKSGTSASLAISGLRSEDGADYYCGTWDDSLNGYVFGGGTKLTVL
B8: P001018 (huOX108.1) (antibody, V domains shown)
VH: QVQLVQSGAEVKKPGASVKVSCKASGYTFTSYVMHWVRQAPGQGLEWMGYINPYNDDTNYNEKFKGRVTMTRDTSTSTVYMELSSLRSEDTAVYYCAREDYYGSRWGYWGQGTLVTVSS
VL: DIVLTQSPASLAVSPGQRATITCRASKSVSTSGYSYMHWYQQKPGQPPKLLIYLASNLESGVPARFSGSGSGTDFTLTINPVEANDTANYYCQHSRELLTFGQGTKVEIK
notes: also called humanized antibody P001018

Legend:
[1] = molecular target: T1, human CD200R1 expressed on cells …; assay: flow cytometry on Jurkat-CD200R1 and HH cells, 500 nM antibody in IgG1 form
Procedure: The cells were washed by centrifugation at 130 g for 5 minutes. The cells were seeded onto 96-well round-bottom plates (SPL, #34296) at a density of 1×10⁵ cells/well in Flow cytometry staining buffer (Invitrogen, #00-4222-26) or FACS buffer. […] After incubation for 1 hour at 4° C., the cells were treated with Alexa-647 Goat anti-human IgG (H+L) cross-adsorbed secondary antibody (Invitrogen, #A21445) and incubated at 4° C. for an additional 30 minutes. After washing twice with FACS buffer, flow cytometry analysis was performed using a Novocyte Flow cytometer (Agilent).

[2] = molecular target: T2, mouse CD200R1 protein (R&D systems, …); assay: ELISA, plate-bound mouse CD200R1 (2 ug/mL), IgG 0.0192-300 nM, OD 450 nm; panel 'mouse CD200R1'
Procedure: (§1) 96-well plates were coated with human CD200R1 (R&D systems, 3414-CD) and mouse CD200R1 protein (R&D systems, 2554-CD) at a concentration of 2 μg/mL at 4° C. for 16 hours and then were blocked with 3% skim milk.
(§2) Color was developed with a TMB substrate solution (Thermo Scientific, 34029, 1-Step™ TMB-ELISA Ultra Substrate Solution). The color reaction was stopped with stop solution (Invitrogen, SS04, ELISA Stop Solution). The absorbance was measured at an optical density of 450 nm.

[3] = molecular target: T3, human CD200RLa (Sino Biological, …); assay: ELISA, plate-bound human CD200RLa (2 ug/mL), antibody 0.0192-300 nM, O.D 450 nm; panel 'recombinant human CD200RLa'
Procedure: (§3) 96-well plates were coated with human CD200RLa (Sino Biological, 11620-H08H) and monkey CD200RLa (Sino Biological, 11576-C02H) recombinant proteins at a concentration of 2 μg/mL at 4° C. for 16 hours, and blocked with 3% skim milk for 1 hour. […] Color was developed with a TMB substrate solution (Thermo Scientific, 34029, 1-Step™ Ultra TMB-ELISA Substrate Solution). The color reaction was stopped with stop solution (Invitrogen, SS04, ELISA Stop Solution).

Hybrid CD200R1 MH [4] = molecular target: T4, Hybrid CD200R1 MH; assay: ELISA, plate-bound MH hybrid (1 ug/mL), antibody 0.0192-300 nM, O.D 450 nm; panel 'P001 MH domain-2)'
Procedure: (§4) Recombinant proteins were produced from the extracellular Ig-like V-type domain and Ig-like C2-type domain of human CD200R1, each designed as human-mouse (HM hybrid domain) and mouse-human (MH hybrid domain) recombinant proteins. A 96-well plate was coated at a concentration of 1 μg/mL with each protein at 4° C. for 16 hours and blocked with 3% skim milk. […] After color development with TMB substrate solution (Thermo Scientific, 34029, 1-Step™ Ultra TMB-ELISA Substrate Solution), the color reaction was stopped with a stop solution (Invitrogen, SS04, ELISA Stop Solution), and the absorbance was measured at an O.D. of 450 nm.

[5] = molecular target: T5, monkey CD200RLa (Sino Biological, …); assay: ELISA, plate-bound monkey CD200RLa (2 ug/mL), antibody 0.0192-300 nM, O.D 450 nm; panel 'recombinant cynomolgus CD200RLa/Fc'
Procedure: as §3

Hybrid CD200R1 MH [6] = molecular target: T4, Hybrid CD200R1 MH; assay: ELISA, plate-bound MH hybrid (1 ug/mL), antibody 0.0192-300 nM, O.D 450 nm; panel 'P001 MH domain-1)'
Procedure: as §4

[7] = molecular target: T6, human CD200R1 recombinant protein …; assay: ELISA on human CD200R1, O.D 450 nm, 0.0192-300 nM; panel 'P001_CD200R1 human 1'
Procedure: as §1, §2
The secondary engineered antibodies were evaluated by ELISA in the same manner as in Examples described above.

[8] = molecular target: T1, human CD200R1 expressed on cells …; assay: flow cytometry, HH cells; drawn table, row EC50
[9] = molecular target: T1, human CD200R1 expressed on cells …; assay: flow cytometry, HH cells; drawn table

Binder	MFI normalized to P001017 (chimeric OX108), % [1] [%]	binding result [2]	binding result [3]	binding result [5]	binding result (Hybrid CD200R1 MH [6])	other results
B1	> 50	no binding (tested: 300 nM)	no binding (tested: 300 nM)	no binding (tested: 300 nM)	–	binding result (Hybrid CD200R1 MH [4]): no binding (tested: 300 nM)
B2	–	no binding (tested: 300 nM)	no binding (tested: 300 nM)	–	no binding (tested: 300 nM)	–
B3	–	–	no binding (tested: 300 nM)	no binding (tested: 300 nM)	–	–
B4	–	no binding (tested: 300 nM)	no binding (tested: 300 nM)	no binding (tested: 300 nM)	–	–
B5	–	no binding (tested: 300 nM)	no binding (tested: 300 nM)	–	–	binding result (Hybrid CD200R1 MH [4]): no binding (tested: 300 nM)
B6	–	no binding (tested: 300 nM)	no binding (tested: 300 nM)	–	no binding (tested: 300 nM)	–
B7	> 50	no binding (tested: 300 nM)	no binding (tested: 300 nM)	–	no binding (tested: 300 nM)	–
B8	> 50	–	no binding (tested: 300 nM)	–	–	EC50 (read off the curve) [7]: ~2 nM and ~5 nM; EC50 [8]: 6.64 nM; Geo mean (%) at 0.05 nM [9]: 2.1%; Geo mean (%) at 0.19 nM [9]: 6.1%; Geo mean (%) at 0.78 nM [9]: 15.8%; Geo mean (%) at 3.125 nM [9]: 35.2%; Geo mean (%) at 12.5 nM [9]: 65.7%; Geo mean (%) at 50 nM [9]: 79.7%; Geo mean (%) at 200 nM [9]: 96.9%; Geo mean (%) at 800 nM [9]: 100%

— patent US20260263521A1 (AIMED BIO, published 2026)
